Data as given in the supplement of paper PMC9876800.

Test system: peptide library, one residue held at a place counted from the S/T acceptor
Assay: relative phosphorylation of the sub-library (ratio to the mean residue at this position); human; higher = residue favoured
Method in brief: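 Relative sub-library phosphorylation is the ratio of each sub-library's signal to the mean residue at that position. The signal came from phosphorimaging of spots on streptavidin membranes, quantified by densitometry, after purified recombinant kinases reacted with biotinylated degenerate peptide sub-libraries in 384-well plates. Reactions held 50 μM peptide and 50 μM ATP spiked with γ-32P-ATP for 90 min under kinase-specific conditions.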

Chain of CSNK1G3, construct: Full length (Q9Y6M4 whole entry, looked up): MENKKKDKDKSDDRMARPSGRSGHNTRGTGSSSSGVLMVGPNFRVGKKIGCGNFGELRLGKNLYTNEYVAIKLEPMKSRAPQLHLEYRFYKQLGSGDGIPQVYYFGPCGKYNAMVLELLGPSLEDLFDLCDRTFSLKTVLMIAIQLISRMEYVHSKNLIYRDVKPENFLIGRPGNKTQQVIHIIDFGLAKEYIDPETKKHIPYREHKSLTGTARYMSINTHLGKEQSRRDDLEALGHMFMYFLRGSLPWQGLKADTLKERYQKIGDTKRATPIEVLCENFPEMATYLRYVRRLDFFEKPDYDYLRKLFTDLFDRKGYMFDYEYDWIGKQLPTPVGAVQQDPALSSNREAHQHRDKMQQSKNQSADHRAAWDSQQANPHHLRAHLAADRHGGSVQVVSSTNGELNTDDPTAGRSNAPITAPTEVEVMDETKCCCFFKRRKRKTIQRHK
Chain of CSNK1A1L, construct: Full length (Q8N752 whole entry, looked up): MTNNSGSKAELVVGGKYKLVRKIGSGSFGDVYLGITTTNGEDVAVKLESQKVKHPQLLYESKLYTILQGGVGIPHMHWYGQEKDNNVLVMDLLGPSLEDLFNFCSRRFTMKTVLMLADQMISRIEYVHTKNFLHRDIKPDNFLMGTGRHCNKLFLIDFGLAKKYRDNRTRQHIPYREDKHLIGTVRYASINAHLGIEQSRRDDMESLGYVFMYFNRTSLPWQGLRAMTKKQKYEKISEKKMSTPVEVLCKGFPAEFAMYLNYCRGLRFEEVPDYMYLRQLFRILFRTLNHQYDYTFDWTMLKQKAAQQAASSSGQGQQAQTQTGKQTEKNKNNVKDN
Chain of CLK3, construct: Full length (P49761 whole entry, looked up): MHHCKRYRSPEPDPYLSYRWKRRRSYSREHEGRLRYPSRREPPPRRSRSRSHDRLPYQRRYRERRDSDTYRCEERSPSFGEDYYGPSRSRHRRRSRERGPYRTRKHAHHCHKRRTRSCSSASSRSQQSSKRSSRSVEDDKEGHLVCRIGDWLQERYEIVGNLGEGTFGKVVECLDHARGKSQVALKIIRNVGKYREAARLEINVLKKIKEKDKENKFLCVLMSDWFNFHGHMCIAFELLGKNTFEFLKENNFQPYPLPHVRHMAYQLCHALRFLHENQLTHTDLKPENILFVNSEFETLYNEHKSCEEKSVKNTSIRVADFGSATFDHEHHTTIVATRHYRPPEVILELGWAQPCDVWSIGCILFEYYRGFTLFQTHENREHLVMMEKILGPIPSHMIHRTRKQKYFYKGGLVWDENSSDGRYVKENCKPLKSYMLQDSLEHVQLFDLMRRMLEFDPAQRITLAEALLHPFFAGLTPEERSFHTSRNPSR
Chain of CSNK2A1, construct: Full length (P68400 whole entry, looked up): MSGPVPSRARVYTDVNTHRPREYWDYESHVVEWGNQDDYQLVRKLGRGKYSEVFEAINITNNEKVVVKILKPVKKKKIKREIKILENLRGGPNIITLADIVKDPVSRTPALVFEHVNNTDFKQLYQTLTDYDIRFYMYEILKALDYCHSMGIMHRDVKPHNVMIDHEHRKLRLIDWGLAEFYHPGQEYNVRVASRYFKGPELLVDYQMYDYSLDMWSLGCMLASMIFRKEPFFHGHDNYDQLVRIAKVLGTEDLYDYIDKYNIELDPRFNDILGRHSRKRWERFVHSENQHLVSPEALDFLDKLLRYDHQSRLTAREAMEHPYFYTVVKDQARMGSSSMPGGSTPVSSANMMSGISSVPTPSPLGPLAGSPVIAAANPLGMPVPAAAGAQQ

CLK3, construct: Full length (from UniProt P49761)
relative phosphorylation
Settings | at +1 | at +2 | at +3 | at +4 | at -1 | at -2 | at -3 | at -4 | at -5
A fixed | 0.914 | 1.22 | 0.84 | 1.18 | 0.969 | 1.52 | 0.79 | 0.812 | 1.06
D fixed | 0.555 | 1.69 | 0.683 | 1.62 | 0.872 | 1.26 | 1.43 | 1.4 | 1.87
E fixed | 1.27 | 1.91 | 0.622 | 1.34 | 0.915 | 1.8 | 1.19 | 1.38 | 1.04
F fixed | 0.282 | 0.536 | 0.348 | 0.694 | 0.306 | 0.342 | 0.339 | 0.516 | 0.773
G fixed | 0.984 | 0.987 | 0.917 | 0.938 | 1.03 | 1.35 | 0.853 | 1.1 | 0.928
H fixed | 0.735 | 0.971 | 1.07 | 0.869 | 0.799 | 0.732 | 0.607 | 0.885 | 0.899
I fixed | 0.382 | 0.381 | 0.47 | 0.681 | 0.203 | 0.33 | 0.282 | 0.417 | 0.523
K fixed | 2.02 | 1.6 | 3.25 | 2.08 | 2.62 | 1.33 | 2.38 | 1.38 | 1.53
L fixed | 0.478 | 0.506 | 0.438 | 0.748 | 0.376 | 0.307 | 0.31 | 0.492 | 0.599
M fixed | 0.659 | 0.574 | 0.424 | 0.724 | 0.405 | 0.39 | 0.359 | 0.613 | 0.492
N fixed | 1.06 | 1.03 | 1.1 | 0.885 | 1.55 | 0.853 | 0.779 | 0.961 | 0.846
P fixed | 4.92 | 1.69 | 1.81 | 0.963 | 2.15 | 1.9 | 1.76 | 1.87 | 0.949
Q fixed | 0.983 | 0.898 | 0.707 | 1.01 | 1.62 | 0.904 | 0.852 | 0.996 | 0.973
R fixed | 0.409 | 1.35 | 2.93 | 1.1 | 2.1 | 2.72 | 3.78 | 2.05 | 2.05
V fixed | 0.619 | 0.52 | 0.457 | 0.796 | 0.367 | 0.432 | 0.436 | 0.535 | 0.735
W fixed | 0.368 | 0.628 | 0.483 | 0.732 | 0.37 | 0.39 | 0.457 | 0.879 | 1.07
Y fixed | 0.368 | 0.517 | 0.439 | 0.649 | 0.348 | 0.435 | 0.403 | 0.704 | 0.674
pThr fixed | 0.887 | 2.44 | 0.951 | 2.16 | 0.555 | 0.817 | 1.05 | 1.27 | 1.12
pTyr fixed | 1.23 | 0.956 | 0.877 | 1.3 | 1.1 | 0.87 | 0.997 | 1.05 | 0.98

CSNK1A1L, construct: Full length (from UniProt Q8N752)
relative phosphorylation
Settings | at +1 | at +2 | at +3 | at +4 | at -1 | at -2 | at -3 | at -4 | at -5
A fixed | 0.971 | 1.06 | 1.06 | 1.04 | 1.09 | 1.69 | 0.946 | 0.941 | 0.921
D fixed | 0.691 | 0.714 | 0.868 | 0.854 | 0.749 | 0.716 | 1.06 | 0.888 | 0.771
E fixed | 0.871 | 0.578 | 0.9 | 0.871 | 0.977 | 0.991 | 2.26 | 1.1 | 0.78
F fixed | 0.886 | 1.12 | 1.17 | 1.05 | 0.872 | 0.81 | 0.784 | 0.965 | 1.27
G fixed | 0.849 | 0.885 | 1.07 | 0.992 | 1.21 | 0.819 | 0.778 | 0.948 | 0.897
H fixed | 0.744 | 0.98 | 0.899 | 0.858 | 0.896 | 0.748 | 0.734 | 0.933 | 0.985
I fixed | 1.87 | 1.66 | 1.19 | 1.03 | 0.879 | 0.847 | 0.965 | 1.13 | 1.1
K fixed | 0.883 | 1.02 | 0.845 | 1.09 | 1.2 | 1.35 | 1.13 | 1.24 | 1.27
L fixed | 1.19 | 0.964 | 1.07 | 1.11 | 1.01 | 0.903 | 0.811 | 1.08 | 1.09
M fixed | 1.03 | 1.02 | 1.17 | 1.08 | 1.13 | 0.839 | 0.751 | 0.96 | 1.09
N fixed | 0.745 | 0.702 | 0.795 | 0.777 | 0.997 | 0.798 | 0.704 | 0.96 | 0.874
P fixed | 0.719 | 0.705 | 0.904 | 1.1 | 1.02 | 1.19 | 0.741 | 0.873 | 0.874
Q fixed | 0.801 | 0.731 | 0.808 | 0.913 | 0.878 | 0.889 | 0.685 | 0.865 | 0.807
R fixed | 1.25 | 1.03 | 0.801 | 0.897 | 1.54 | 2.1 | 2.08 | 1.15 | 1.18
V fixed | 1.88 | 1.38 | 1.14 | 1.02 | 0.854 | 0.889 | 0.813 | 0.956 | 0.925
W fixed | 0.769 | 1.06 | 1.16 | 1.24 | 0.754 | 0.681 | 0.656 | 0.946 | 0.928
Y fixed | 0.854 | 1.4 | 1.15 | 1.07 | 0.94 | 0.737 | 1.09 | 1.08 | 1.25
pThr fixed | 1.69 | 0.803 | 1.25 | 1.64 | 2.06 | 3.58 | 53.8 | 5.13 | 1.56
pTyr fixed | 1.26 | 2.63 | 3.97 | 2.06 | 1.5 | 1.78 | 2.99 | 4.32 | 1.93

CSNK1G3, construct: Full length (from UniProt Q9Y6M4)
relative phosphorylation
Settings | at +1 | at +2 | at +3 | at +4 | at -1 | at -2 | at -3 | at -4 | at -5
A fixed | 0.678 | 0.743 | 0.752 | 0.708 | 0.916 | 1.39 | 0.508 | 0.923 | 1.01
D fixed | 0.543 | 0.941 | 2.63 | 1.12 | 0.701 | 1.08 | 5.05 | 1.58 | 1.8
E fixed | 0.611 | 0.607 | 1.46 | 0.928 | 0.788 | 1.27 | 3.58 | 1.78 | 1.62
F fixed | 1.07 | 1.17 | 1.22 | 1.43 | 0.905 | 0.576 | 0.522 | 1.07 | 0.859
G fixed | 0.459 | 0.67 | 0.931 | 1.07 | 0.635 | 0.903 | 0.475 | 0.818 | 0.86
H fixed | 0.841 | 1.44 | 0.901 | 0.991 | 0.949 | 0.716 | 0.548 | 0.898 | 0.988
I fixed | 1.81 | 1.02 | 0.58 | 0.696 | 1.39 | 0.963 | 0.467 | 0.714 | 0.82
K fixed | 0.778 | 0.952 | 0.672 | 0.822 | 1 | 0.832 | 0.652 | 0.763 | 0.896
L fixed | 2.24 | 1.1 | 0.772 | 0.808 | 1.23 | 1.05 | 0.484 | 0.796 | 0.91
M fixed | 1.58 | 0.945 | 0.748 | 0.989 | 1.32 | 0.882 | 0.504 | 0.872 | 0.96
N fixed | 0.721 | 1.06 | 1.05 | 0.947 | 0.781 | 1.57 | 0.645 | 0.801 | 1.04
P fixed | 0.443 | 0.482 | 0.683 | 0.97 | 0.579 | 0.471 | 0.418 | 0.897 | 0.658
Q fixed | 0.843 | 0.864 | 0.869 | 0.879 | 1.1 | 1.26 | 0.528 | 0.788 | 0.79
R fixed | 1.03 | 1.25 | 0.877 | 1.02 | 1.28 | 1.54 | 1.02 | 0.845 | 0.992
V fixed | 1.5 | 0.936 | 0.794 | 0.814 | 1.23 | 1.17 | 0.458 | 0.669 | 0.876
W fixed | 1.01 | 1.23 | 1.11 | 1.48 | 1.22 | 0.715 | 0.581 | 1.69 | 1.05
Y fixed | 0.855 | 1.59 | 0.941 | 1.33 | 0.974 | 0.613 | 0.56 | 1.1 | 0.877
pThr fixed | 0.618 | 0.558 | 1.52 | 2.55 | 0.636 | 4.34 | 144 | 10.2 | 4.37
pTyr fixed | 1.13 | 5.14 | 9.54 | 2.97 | 0.797 | 1.85 | 12.1 | 5.93 | 2.97

CSNK2A1, construct: Full length (from UniProt P68400)
relative phosphorylation
Settings | at +1 | at +2 | at +3 | at +4 | at -1 | at -2 | at -3 | at -4 | at -5
A fixed | 0.479 | 1.2 | 0.406 | 0.847 | 0.867 | 1.02 | 0.979 | 1.01 | 1.09
D fixed | 9.09 | 3.13 | 2.81 | 2.06 | 3.14 | 1.45 | 1.78 | 1.79 | 1.46
E fixed | 3.33 | 2.03 | 9.11 | 2.6 | 2.33 | 1.37 | 1.53 | 1.56 | 1.2
F fixed | 0.24 | 0.739 | 0.307 | 0.878 | 0.886 | 1.04 | 0.97 | 0.88 | 0.976
G fixed | 0.561 | 0.782 | 0.533 | 1.06 | 0.687 | 0.891 | 1.65 | 1.03 | 0.98
H fixed | 0.333 | 0.993 | 0.347 | 0.75 | 0.829 | 0.968 | 0.907 | 0.895 | 1.08
I fixed | 0.208 | 0.654 | 0.249 | 0.811 | 0.61 | 0.94 | 0.759 | 0.839 | 0.883
K fixed | 0.23 | 0.374 | 0.236 | 0.53 | 0.48 | 0.458 | 0.566 | 0.76 | 0.963
L fixed | 0.237 | 0.499 | 0.246 | 0.64 | 0.926 | 0.693 | 0.702 | 0.892 | 0.726
M fixed | 0.259 | 0.524 | 0.257 | 0.916 | 0.934 | 0.705 | 0.823 | 0.941 | 0.911
N fixed | 0.5 | 1.42 | 0.455 | 0.904 | 0.796 | 0.813 | 1.05 | 1.04 | 1.05
P fixed | 0.232 | 0.543 | 0.412 | 0.597 | 0.541 | 0.778 | 0.853 | 0.807 | 0.751
Q fixed | 0.352 | 0.68 | 0.4 | 0.832 | 0.922 | 0.678 | 0.869 | 0.867 | 0.808
R fixed | 0.221 | 0.426 | 0.258 | 0.553 | 0.435 | 0.589 | 0.657 | 0.87 | 0.943
V fixed | 0.249 | 0.923 | 0.263 | 0.76 | 0.751 | 0.859 | 0.801 | 0.826 | 0.969
W fixed | 0.236 | 1.16 | 0.328 | 1.32 | 0.914 | 1.12 | 0.897 | 0.927 | 1.15
Y fixed | 0.238 | 0.923 | 0.385 | 0.933 | 0.954 | 2.62 | 1.21 | 1.08 | 1.06
pThr fixed | 5.46 | 1.84 | 1.96 | 6.46 | 1.96 | 1.59 | 2.22 | 1.83 | 1.39
pTyr fixed | 0.808 | 2.14 | 4.29 | 3.87 | 3.49 | 2.41 | 2.37 | 1.4 | 1.47
